Key:
Test in all cases: cell-based or functional assay
[1] = molecular target: CDK6/cyclinD3(h) (human) (UniProt Q00534)
[2] = molecular target: Hck(h) (human) (UniProt P08631)
[3] = molecular target: Aurora-B(h) (human) (UniProt Q96GD4)
[4] = molecular target: CDK5/p35(h) (human) (UniProt Q00535)
[5] = molecular target: Fes(h) (human) (UniProt P07332)
[6] = molecular target: cKit(V654A)(h) (human) (UniProt P10721)
[7] = molecular target: T1, BrSK2(h) (human) (UniProt Q8IWQ3)
T1 sequence (looked up): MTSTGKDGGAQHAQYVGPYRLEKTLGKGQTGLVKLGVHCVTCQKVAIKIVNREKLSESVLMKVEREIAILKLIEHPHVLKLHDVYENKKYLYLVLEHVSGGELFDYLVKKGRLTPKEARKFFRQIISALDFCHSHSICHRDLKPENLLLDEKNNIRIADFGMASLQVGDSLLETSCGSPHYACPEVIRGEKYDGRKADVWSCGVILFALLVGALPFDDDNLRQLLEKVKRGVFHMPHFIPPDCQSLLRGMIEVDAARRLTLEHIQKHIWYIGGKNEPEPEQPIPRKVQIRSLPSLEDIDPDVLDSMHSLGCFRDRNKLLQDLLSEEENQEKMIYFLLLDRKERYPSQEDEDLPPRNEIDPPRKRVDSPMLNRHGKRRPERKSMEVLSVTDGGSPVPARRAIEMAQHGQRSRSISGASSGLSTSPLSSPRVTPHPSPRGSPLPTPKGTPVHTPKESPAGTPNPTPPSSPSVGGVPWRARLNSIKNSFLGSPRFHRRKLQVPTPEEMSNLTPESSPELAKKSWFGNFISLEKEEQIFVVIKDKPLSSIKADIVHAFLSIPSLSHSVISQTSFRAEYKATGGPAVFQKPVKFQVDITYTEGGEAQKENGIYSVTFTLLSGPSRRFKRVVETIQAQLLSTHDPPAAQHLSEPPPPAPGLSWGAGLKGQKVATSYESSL

[8] = molecular target: CDK2/cyclinA(h) (human) (UniProt P24941)
[9] = molecular target: T2, TSSK2(h) (human) (UniProt Q96PF2)
T2 sequence (looked up): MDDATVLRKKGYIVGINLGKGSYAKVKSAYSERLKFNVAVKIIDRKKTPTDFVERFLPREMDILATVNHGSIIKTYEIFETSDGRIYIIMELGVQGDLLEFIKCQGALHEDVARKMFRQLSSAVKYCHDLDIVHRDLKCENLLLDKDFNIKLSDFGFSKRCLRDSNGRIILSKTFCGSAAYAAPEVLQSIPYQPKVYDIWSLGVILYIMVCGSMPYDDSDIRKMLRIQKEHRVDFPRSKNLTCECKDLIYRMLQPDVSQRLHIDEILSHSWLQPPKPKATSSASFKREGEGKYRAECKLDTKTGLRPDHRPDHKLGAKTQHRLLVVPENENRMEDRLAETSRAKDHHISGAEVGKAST

[10] = molecular target: Src(1-530)(h) (human) (UniProt P12931)
[11] = molecular target: T3, DDR2(h) (human) (UniProt Q16832)
T3 sequence (looked up): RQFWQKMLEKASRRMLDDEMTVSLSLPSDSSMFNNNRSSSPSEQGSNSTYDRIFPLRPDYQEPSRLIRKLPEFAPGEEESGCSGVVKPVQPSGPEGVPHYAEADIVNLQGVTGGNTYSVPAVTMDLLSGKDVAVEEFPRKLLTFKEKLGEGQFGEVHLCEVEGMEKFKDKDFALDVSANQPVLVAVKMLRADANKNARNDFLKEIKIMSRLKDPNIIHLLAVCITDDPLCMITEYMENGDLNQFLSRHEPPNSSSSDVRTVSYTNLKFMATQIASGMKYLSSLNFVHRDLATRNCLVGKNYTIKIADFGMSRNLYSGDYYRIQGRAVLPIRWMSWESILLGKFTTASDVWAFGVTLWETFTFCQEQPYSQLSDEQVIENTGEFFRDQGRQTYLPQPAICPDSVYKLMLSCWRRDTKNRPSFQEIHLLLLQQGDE

[12] = molecular target: EphA7(h) (human) (UniProt Q15375)
[13] = molecular target: T4, eEF-2K(h) (human) (UniProt O00418)
T4 sequence (looked up): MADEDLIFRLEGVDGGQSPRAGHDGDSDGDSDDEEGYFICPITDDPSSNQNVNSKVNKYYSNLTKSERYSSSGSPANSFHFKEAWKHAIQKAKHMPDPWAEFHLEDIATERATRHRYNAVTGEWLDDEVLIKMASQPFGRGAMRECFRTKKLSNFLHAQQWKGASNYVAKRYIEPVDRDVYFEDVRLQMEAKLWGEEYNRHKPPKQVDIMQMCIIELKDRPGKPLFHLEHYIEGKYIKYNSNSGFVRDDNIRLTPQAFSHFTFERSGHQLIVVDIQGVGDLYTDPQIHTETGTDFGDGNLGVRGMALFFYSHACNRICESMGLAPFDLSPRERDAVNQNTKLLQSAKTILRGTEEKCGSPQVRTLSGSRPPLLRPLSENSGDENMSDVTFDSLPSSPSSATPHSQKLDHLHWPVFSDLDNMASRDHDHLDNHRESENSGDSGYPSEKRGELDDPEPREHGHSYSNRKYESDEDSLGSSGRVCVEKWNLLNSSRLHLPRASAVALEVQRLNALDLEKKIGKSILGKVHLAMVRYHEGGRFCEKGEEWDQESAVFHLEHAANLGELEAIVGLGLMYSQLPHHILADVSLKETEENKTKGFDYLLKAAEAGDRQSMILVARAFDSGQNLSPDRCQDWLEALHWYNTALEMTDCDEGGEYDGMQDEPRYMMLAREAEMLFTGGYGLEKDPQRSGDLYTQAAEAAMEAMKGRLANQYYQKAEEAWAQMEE

cKit(V654A)(h) (human), sequence (P10721 544-976 V654A): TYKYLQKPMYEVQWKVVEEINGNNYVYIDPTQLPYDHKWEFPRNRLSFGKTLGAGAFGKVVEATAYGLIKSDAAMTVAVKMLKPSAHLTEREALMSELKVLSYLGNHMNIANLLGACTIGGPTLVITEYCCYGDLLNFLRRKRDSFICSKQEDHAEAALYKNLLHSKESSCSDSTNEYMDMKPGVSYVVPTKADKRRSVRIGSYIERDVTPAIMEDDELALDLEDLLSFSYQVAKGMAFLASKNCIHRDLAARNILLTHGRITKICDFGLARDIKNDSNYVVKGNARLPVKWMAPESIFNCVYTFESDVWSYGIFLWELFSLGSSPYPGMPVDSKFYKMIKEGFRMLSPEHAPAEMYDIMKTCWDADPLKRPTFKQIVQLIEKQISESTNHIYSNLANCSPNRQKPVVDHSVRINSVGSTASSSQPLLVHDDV
Aurora-B(h) (human), sequence (Q96GD4 whole entry): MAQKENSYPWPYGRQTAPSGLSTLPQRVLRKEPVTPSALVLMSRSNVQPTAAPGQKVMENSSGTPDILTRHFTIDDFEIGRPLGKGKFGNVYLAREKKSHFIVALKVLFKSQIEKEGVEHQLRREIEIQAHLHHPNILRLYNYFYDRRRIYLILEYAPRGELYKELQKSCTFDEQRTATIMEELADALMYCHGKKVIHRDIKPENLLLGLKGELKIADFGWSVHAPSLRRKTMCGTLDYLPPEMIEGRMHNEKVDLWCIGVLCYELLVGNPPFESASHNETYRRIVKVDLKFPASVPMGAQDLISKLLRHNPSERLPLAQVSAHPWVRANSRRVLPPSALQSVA
CDK6/cyclinD3(h) (human), sequence (Q00534 whole entry, chain 1 of 2): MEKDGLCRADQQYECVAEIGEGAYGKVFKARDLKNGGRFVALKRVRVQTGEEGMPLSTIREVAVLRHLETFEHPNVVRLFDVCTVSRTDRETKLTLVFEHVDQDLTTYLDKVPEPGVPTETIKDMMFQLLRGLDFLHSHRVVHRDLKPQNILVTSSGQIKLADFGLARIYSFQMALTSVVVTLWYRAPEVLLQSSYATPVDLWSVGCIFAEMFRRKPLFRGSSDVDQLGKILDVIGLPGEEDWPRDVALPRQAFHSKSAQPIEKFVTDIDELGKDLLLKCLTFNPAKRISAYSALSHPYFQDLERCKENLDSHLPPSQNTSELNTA
CDK6/cyclinD3(h) (human), sequence (P30281 whole entry, chain 2 of 2, further chain): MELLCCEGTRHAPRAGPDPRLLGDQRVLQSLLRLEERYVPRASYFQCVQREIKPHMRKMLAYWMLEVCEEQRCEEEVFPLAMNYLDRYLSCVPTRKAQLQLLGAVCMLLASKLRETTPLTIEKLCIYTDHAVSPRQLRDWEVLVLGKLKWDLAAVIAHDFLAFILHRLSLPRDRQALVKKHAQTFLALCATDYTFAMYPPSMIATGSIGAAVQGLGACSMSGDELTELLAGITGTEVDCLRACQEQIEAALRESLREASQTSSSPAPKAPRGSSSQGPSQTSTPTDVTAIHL

% activity at 100 µM [1] [%] | % activity at 100 µM [2] [%] | % activity at 100 µM [3] [%] | % activity at 100 µM [4] [%] | % activity at 100 µM [5] [%] | % activity at 100 µM [6] [%] | % activity at 100 µM [7] [%] | % activity at 100 µM [8] [%] | % activity at 100 µM [9] [%] | % activity at 100 µM [10] [%] | % activity at 100 µM [11] [%] | % activity at 100 µM [12] [%] | % activity at 100 µM [13] [%] | Substance
86 | 72 | 128 | 79 | 20 | 134 | 83 | 86 | 98 | 23 | 94 | 159 | 91 | MMI-0300 (peptide)
85 | 72 | 150 | 76 | 16 | 150 | 86 | 92 | 94 | 19 | 95 | 222 | 43 | MMI-0400 (peptide)
23 | 78 | 5 | 59 | 23 | 223 | 84 | 87 | 92 | 21 | 79 | 189 | 43 | MMI-0500 (peptide)
